Test results published in US20210171647A1 (WUXI BIOLOGICS SHANGHAI, published 2021).

Columns and labels:
Assay in all cases: ELISA, antibody coated, OX40-ECD.His mutant supernatant; relative to silent alanine substitutions;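 also: captured OX40 mutant protein detected with HRP-labelled anti-His antibody, absorbance read-out, scaled to the mean signal of control mutants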
[1] = molecular target: T1, human OX40-ECD.His L29A (human, UniProt P43489 29-214)
T1 construct: extracellular domain; not shown: C-terminal His-tag
T1 sequence (looked up): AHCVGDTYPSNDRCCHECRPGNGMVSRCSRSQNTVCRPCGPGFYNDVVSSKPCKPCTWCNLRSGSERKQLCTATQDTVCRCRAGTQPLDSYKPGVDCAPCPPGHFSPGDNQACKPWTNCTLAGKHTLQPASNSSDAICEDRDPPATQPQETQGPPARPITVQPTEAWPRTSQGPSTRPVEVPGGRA

[2] = molecular target: T2, human OX40-ECD.His T85A (human, UniProt P43489 29-214)
T2 construct: extracellular domain; not shown: C-terminal His-tag
T2 sequence (looked up): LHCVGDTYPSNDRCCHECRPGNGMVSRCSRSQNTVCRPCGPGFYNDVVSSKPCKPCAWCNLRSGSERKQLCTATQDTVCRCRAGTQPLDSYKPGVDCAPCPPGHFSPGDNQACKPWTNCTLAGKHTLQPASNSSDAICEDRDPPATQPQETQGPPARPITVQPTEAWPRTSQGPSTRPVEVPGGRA

[3] = molecular target: T3, human OX40-ECD.His P66A (human, UniProt P43489 29-214)
T3 construct: extracellular domain; not shown: C-terminal His-tag
T3 sequence (looked up): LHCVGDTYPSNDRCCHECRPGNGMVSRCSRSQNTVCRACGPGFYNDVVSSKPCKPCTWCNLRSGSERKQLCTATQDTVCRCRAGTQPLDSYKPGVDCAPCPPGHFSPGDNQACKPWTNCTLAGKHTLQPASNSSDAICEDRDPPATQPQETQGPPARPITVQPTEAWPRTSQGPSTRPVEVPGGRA

[4] = molecular target: T4, human OX40-ECD.His K152A (human, UniProt P43489 29-214)
T4 construct: extracellular domain; not shown: C-terminal His-tag
T4 sequence (looked up): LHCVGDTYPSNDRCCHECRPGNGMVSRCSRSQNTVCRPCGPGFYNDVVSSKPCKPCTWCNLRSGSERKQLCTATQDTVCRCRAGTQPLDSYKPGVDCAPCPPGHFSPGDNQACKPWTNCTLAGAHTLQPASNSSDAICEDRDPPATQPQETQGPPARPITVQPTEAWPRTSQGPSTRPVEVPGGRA

[5] = molecular target: T5, human OX40-ECD.His Q60A (human, UniProt P43489 29-214)
T5 construct: extracellular domain; not shown: C-terminal His-tag
T5 sequence (looked up): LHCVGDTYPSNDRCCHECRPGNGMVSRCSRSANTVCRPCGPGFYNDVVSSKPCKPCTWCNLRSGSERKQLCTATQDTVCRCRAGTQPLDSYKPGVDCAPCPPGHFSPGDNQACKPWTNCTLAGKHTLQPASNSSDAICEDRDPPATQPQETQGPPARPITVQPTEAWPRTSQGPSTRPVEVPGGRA

[6] = molecular target: T6, human OX40-ECD.His T62A (human, UniProt P43489 29-214)
T6 construct: extracellular domain; not shown: C-terminal His-tag
T6 sequence (looked up): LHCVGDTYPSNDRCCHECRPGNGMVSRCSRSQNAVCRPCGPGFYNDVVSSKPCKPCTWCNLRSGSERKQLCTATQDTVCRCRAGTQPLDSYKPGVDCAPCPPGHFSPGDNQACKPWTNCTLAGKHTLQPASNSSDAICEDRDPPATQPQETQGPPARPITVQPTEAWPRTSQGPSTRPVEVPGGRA

[7] = molecular target: T7, human OX40-ECD.His Q97A (human, UniProt P43489 29-214)
T7 construct: extracellular domain; not shown: C-terminal His-tag
T7 sequence (looked up): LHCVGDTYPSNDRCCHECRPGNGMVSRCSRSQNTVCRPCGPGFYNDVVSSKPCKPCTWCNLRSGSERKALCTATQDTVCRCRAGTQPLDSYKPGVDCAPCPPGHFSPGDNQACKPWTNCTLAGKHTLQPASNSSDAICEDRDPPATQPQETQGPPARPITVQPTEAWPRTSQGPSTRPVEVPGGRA

[8] = molecular target: T8, human OX40-ECD.His P143A (human, UniProt P43489 29-214)
T8 construct: extracellular domain; not shown: C-terminal His-tag
T8 sequence (looked up): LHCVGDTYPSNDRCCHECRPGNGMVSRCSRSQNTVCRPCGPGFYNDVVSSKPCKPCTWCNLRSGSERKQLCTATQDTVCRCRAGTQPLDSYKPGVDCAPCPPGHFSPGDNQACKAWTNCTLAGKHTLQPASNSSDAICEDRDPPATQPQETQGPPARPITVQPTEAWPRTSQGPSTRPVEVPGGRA

[9] = molecular target: T9, human OX40-ECD.His D74A (human, UniProt P43489 29-214)
T9 construct: extracellular domain; not shown: C-terminal His-tag
T9 sequence (looked up): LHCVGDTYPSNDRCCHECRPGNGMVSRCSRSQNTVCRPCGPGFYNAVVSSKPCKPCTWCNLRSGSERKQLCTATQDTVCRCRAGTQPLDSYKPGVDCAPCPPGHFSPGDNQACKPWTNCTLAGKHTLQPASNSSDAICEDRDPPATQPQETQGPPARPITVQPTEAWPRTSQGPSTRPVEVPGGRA

[10] = molecular target: T10, human OX40-ECD.His F71A (human, UniProt P43489 29-214)
T10 construct: extracellular domain; not shown: C-terminal His-tag
T10 sequence (looked up): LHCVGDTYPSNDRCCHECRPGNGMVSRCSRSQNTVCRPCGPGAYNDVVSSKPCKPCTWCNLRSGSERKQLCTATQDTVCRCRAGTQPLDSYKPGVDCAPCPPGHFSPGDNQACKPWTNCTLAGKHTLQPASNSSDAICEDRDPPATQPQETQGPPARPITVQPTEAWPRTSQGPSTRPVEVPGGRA

B1: 1.134.9-u1-IgG1L (antibody, V domains shown)
VH: QVQLQESGPGLVKPSGTLSLTCAVSGGSISSYNWWSWVRQPPGKGLEWIGEIYHGGNTNYNPSLKSRVTMSVDNSKNQFSLKLSSVTAADTAVYYCARAPGDWGGSPYFDFWGQGTLVTVSS
VL: SSELTQDPAVSVALGQTVRITCQGDNLRTYYASWYQQKPGQAPILLIYGRNKRPSGIPDRFSGSSSGNTASLTITGAQAEDEAAYYCNSRDSSGNPVVFGGGTKLTVL
notes: fully human IgG1, lambda
- Fold Change [1]: 1
- Fold Change [2]: 0.808
- Fold Change [3]: 0.913
- Fold Change [4]: 0.81
- Fold Change [5]: 0.971
- Fold Change [6]: 0.923
- Fold Change [7]: 0.981
- Fold Change [8]: 0.92
- Fold Change [9]: 0.796
- Fold Change [10]: 0.866
